From PMC11271494, “Multi-domain interaction mediated strength-building in human α-actinin dimers unveiled by direct single-molecule quantification” (Nature Communications, 2024)

B2: human α-actinin 1 rod domain SR1–SR2–SR3–SR4 (shear–force constructs) (domain or fragment, UniProt P12814 267-745, looked up)
chain: AVNQENEQLMEDYEKLASDLLEWIRRTIPWLENRVPENTMHAMQQKLEDFRDYRRLHKPPKVQEKCQLEINFNTLQTKLRLSNRPAFMPSEGRMVSDINNAWGCLEQVEKGYEEWLLNEIRRLERLDHLAEKFRQKASIHEAWTDGKEAMLRQKDYETATLSEIKALLKKHEAFESDLAAHQDRVEQIAAIAQELNELDYYDSPSVNARCQKICDQWDNLGALTQKRREALERTEKLLETIDQLYLEYAKRAAPFNNWMEGAMEDLQDTFIVHTIEEIQGLTTAHEQFKATLPDADKERLAILGIHNEVSKIVQTYHVNMAGTNPYTTITPQEINGKWDHVRQLVPRRDQALTEEHARQQHNERLRKQFGAQANVIGPWIQTKMEEIGRISIEMHGTLEDQLSHLRQYEKSIVNYKPKIDQLEGDHQLIQEALIFDNKHTNYTMEHIRVGWEQLLTTIARTINEVENQILTRDAKGISQ
modifications: biotin on the AviTag (second rod of the homo-dimer construct)
notes: human α-actinin 1 (ACTN1), central rod domain of four spectrin-like repeats SR1–SR2–SR3–SR4; a full SR rod with the helical linker region has about 480 amino acids; Stood in single-chain chimeras: Spy003–(SR1–SR4)ACTN1–(GS linker, about 170 aa)–AviTag–(SR1–SR4)ACTN1 (homo-dimer; first rod bears SpyTag003, second rod the biotinylated AviTag) and Spy003–(SR1–SR4)ACTN1–(GS …)

Experiments:
[1] = biological target: Entamoeba histolytica α-actinin 2 rod SR1–SR2 (Entamoeba histolytica); assay: single-molecule magnetic tweezers; shear–force geometry; same tethered single-chain constructs; force–jump cycles, dwell time until rupture at a target force, lifetime by exponential fit with bootstrap analysis; 1× PBS, 1% BSA, 1 mM DTT, 10 mM sodium L-ascorbate, 22 ± 1 °C
[2] = biological target: Entamoeba histolytica α-actinin 2 rod SR1–SR2 (Entamoeba histolytica); assay: single-molecule magnetic tweezers; shear–force geometry; the two partners on one chain joined by a long flexible GS linker, tethered via SpyTag003 to a SpyCatcher-coated coverslip and via the biotinylated AviTag to a streptavidin/neutravidin bead; linear force-increase scans (5 pN/s; 1 pN/s for SR2–SR3:SR2–SR3; 1 and 5 pN/s for E. histolytica) and force-decrease scans (−0.1 pN/s); 1× PBS, 1% BSA, 1 mM DTT, 10 mM sodium L-ascorbate, 22 ± 1 °C
[3] = biological target: the molecule itself; assay: single-molecule magnetic tweezers; shear–force geometry; same tethered single-chain constructs; force–jump cycles, dwell time until rupture at a target force, lifetime by exponential fit with bootstrap analysis; 1× PBS, 1% BSA, 1 mM DTT, 10 mM sodium L-ascorbate, 22 ± 1 °C
[4] = biological target: B2; assay: as above; settings: both partners purified
[5] = biological target: T1, human α-actinin 1 SR2–SR3–SR4 (human, UniProt P12814 385-745); assay: as above; settings: both partners purified
T1 construct: human α-actinin 1 (ACTN1), spectrin-like repeats SR2–SR3–SR4 of the rod; First half of the single-chain chimera Spy003–(SR2–SR3–SR4)ACTN1–(GS linker)–AviTag–(SR1–SR2–SR3)ACTN1; joined to m5 by the linker; also called (SR2–SR3–SR4)_(ACTN1); not shown: SpyTag003, N-terminal, kept

Question: “Entamoeba histolytica α-actinin 2 rod SR1–SR2 (domain or fragment)” was tested. Which lifetime at forces <10 pN (second state) [1] did it give?
Answer: Its lifetime at forces <10 pN (second state) is over 10 s.

Question: What about the lifetime at forces <10 pN (third state) [1] of the same molecule?
Answer: The lifetime at forces <10 pN (third state) was over 1 s.

Question: What about the lifetime at forces <15 pN (strongest state) [1] of the same molecule?
Answer: The lifetime at forces <15 pN (strongest state) was over 100 s.

Question: What about the peak rupture force (second state, 5 pN/s) [2] of the same molecule?
Answer: Its peak rupture force (second state, 5 pN/s) is 20 pN.

Question: What about the peak rupture force (strongest state, 5 pN/s) [2] of the same molecule?
Answer: The peak rupture force (strongest state, 5 pN/s) was 33 pN.

Question: And the rupture force (third state) [2]?
Answer: Its rupture force (third state) is 5 pN.

B1: human α-actinin 4 rod domain SR1–SR2–SR3–SR4 (domain or fragment, UniProt O43707 286-764, looked up)
chain: AVNQENEHLMEDYEKLASDLLEWIRRTIPWLEDRVPQKTIQEMQQKLEDFRDYRRVHKPPKVQEKCQLEINFNTLQTKLRLSNRPAFMPSEGKMVSDINNGWQHLEQAEKGYEEWLLNEIRRLERLDHLAEKFRQKASIHEAWTDGKEAMLKHRDYETATLSDIKALIRKHEAFESDLAAHQDRVEQIAAIAQELNELDYYDSHNVNTRCQKICDQWDALGSLTHSRREALEKTEKQLEAIDQLHLEYAKRAAPFNNWMESAMEDLQDMFIVHTIEEIEGLISAHDQFKSTLPDADREREAILAIHKEAQRIAESNHIKLSGSNPYTTVTPQIINSKWEKVQQLVPKRDHALLEEQSKQQSNEHLRRQFASQANVVGPWIQTKMEEIGRISIEMNGTLEDQLSHLKQYERSIVDYKPNLDLLEQQHQLIQEALIFDNKHTNYTMEHIRVGWEQLLTTIARTINEVENQILTRDAKGISQ
modifications: biotin on the AviTag (second rod of the construct)
notes: human α-actinin 4 (ACTN4), central rod domain of four spectrin-like repeats SR1–SR2–SR3–SR4; here the ACTN4 rod bears the biotinylated AviTag; also called (SR1–SR2–SR3–SR4)_(ACTN4); not shown: SpyTag003, N-terminal, kept; AviTag, N-terminal, kept
Question: Which “lifetime within 40 pN (shear geometry)” value [3] does the source give for B1 here?
Answer: Its value is over 100 s.

Question: What about the “lifetime within 40 pN (shear geometry)” value [4] of the same molecule?
Answer: The value was over 100 s.

Question: Which “lifetime within 40 pN (shear geometry)” value [3] does the source give for B2 here?
Answer: Its value is over 100 s.

B3: human α-actinin 1 SR1–SR2–SR3 (domain or fragment, UniProt P12814 267-625, looked up)
chain: AVNQENEQLMEDYEKLASDLLEWIRRTIPWLENRVPENTMHAMQQKLEDFRDYRRLHKPPKVQEKCQLEINFNTLQTKLRLSNRPAFMPSEGRMVSDINNAWGCLEQVEKGYEEWLLNEIRRLERLDHLAEKFRQKASIHEAWTDGKEAMLRQKDYETATLSEIKALLKKHEAFESDLAAHQDRVEQIAAIAQELNELDYYDSPSVNARCQKICDQWDNLGALTQKRREALERTEKLLETIDQLYLEYAKRAAPFNNWMEGAMEDLQDTFIVHTIEEIQGLTTAHEQFKATLPDADKERLAILGIHNEVSKIVQTYHVNMAGTNPYTTITPQEINGKWDHVRQLVPRRDQALTEEHARQ
modifications: biotin on the AviTag
notes: human α-actinin 1 (ACTN1), spectrin-like repeats SR1–SR2–SR3 of the rod; Second half of the single-chain chimera Spy003–(SR2–SR3–SR4)ACTN1–(GS linker)–AviTag–(SR1–SR2–SR3)ACTN1; joined to m4 by the linker; also called (SR1–SR2–SR3)_(ACTN1); not shown: AviTag, N-terminal, kept
Question: With B3 as the molecule, how does the “fold decrease of the force-dependent lifetime against the full rod dimer (m1 with m1)” value [5] read?
Answer: Its value is about 1000 fold.
